Laboratory results reported in article PMC5669500, “Scaffolding the cup-shaped double membrane in autophagy” (PLoS Computational Biology, 2017).
Changes are numbered by the printed parent chain.

Key:
Test in all cases: pull-down; 20 μg GST-Atg13 (351–458) immobilised on 30 μL Glutathione Sepharose 4B; Atg17-Atg31-Atg29 complex at 10 μM; 4°C, 1 hour; 20 mM Tris pH 8, 150 mM NaCl, 0.1 mM TCEP; 3 washes; SDS-PAGE
Conditions in all cases: both partners purified
[1] = molecular target: T1, Atg17-Atg31-Atg29 complex with Atg17 mutant M1 (K318D/Q326D/K329D) (Saccharomyces cerevisiae, UniProt Q06410 1-417; Q12421 1-196; Q12092 1-213, K318D | Q326D | K329D)
T1 construct: Atg17, Saccharomyces cerevisiae; Atg31, Saccharomyces cerevisiae; Atg29, Saccharomyces cerevisiae; a TEV cleavage site follows the His6 tag; Mutations introduced into the Atg17-Atg31-Atg29 construct by quick-change mutagenesis; source: E. coli BL21 (DE3), co-expressed from pST39, purified (Ni-NTA, Superose 6); copies: 2 + +
T1 sequence (looked up) 1: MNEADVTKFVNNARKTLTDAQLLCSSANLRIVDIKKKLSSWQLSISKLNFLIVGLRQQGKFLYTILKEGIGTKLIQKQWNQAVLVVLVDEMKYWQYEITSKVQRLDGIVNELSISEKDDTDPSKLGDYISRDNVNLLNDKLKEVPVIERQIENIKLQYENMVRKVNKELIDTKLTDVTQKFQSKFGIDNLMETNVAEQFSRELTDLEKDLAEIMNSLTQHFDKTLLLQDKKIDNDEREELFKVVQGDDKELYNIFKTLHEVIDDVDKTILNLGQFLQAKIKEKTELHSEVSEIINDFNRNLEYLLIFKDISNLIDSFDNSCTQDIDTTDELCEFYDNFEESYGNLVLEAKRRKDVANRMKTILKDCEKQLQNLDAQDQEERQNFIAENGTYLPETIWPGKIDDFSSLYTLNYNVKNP
T1 sequence (looked up) 2: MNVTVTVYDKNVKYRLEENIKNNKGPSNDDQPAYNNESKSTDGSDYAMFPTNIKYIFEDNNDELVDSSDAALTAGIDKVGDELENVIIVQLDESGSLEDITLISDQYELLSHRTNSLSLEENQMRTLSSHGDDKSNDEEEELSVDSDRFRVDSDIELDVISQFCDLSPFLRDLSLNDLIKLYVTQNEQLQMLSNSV
T1 sequence (looked up) 3: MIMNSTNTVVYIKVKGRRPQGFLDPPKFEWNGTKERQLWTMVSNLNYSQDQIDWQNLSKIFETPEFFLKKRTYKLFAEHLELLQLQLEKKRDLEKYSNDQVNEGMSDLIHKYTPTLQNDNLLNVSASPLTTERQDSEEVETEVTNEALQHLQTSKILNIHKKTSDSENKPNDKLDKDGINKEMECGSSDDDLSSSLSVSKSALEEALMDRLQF

[2] = molecular target: T2, Atg17-Atg31-Atg29 complex with Atg17 mutant M2 (K318D/K329D/Y93E/W94E) (Saccharomyces cerevisiae, UniProt Q06410 1-417; Q12421 1-196; Q12092 1-213, K318D | K329D | Y93E | W94E)
T2 construct: Atg17, Saccharomyces cerevisiae; Atg31, Saccharomyces cerevisiae; Atg29, Saccharomyces cerevisiae; a TEV cleavage site follows the His6 tag; Mutations introduced into the Atg17-Atg31-Atg29 construct by quick-change mutagenesis; source: E. coli BL21 (DE3), co-expressed from pST39, purified (Ni-NTA, Superose 6); copies: 2 + +
T2 sequence (looked up) 1: T1 sequence (looked up) 1 with Y93E, W94E, D326Q
T2 sequence (looked up) 2: T1 sequence (looked up) 2
T2 sequence (looked up) 3: T1 sequence (looked up) 3

[3] = molecular target: T3, Atg17-Atg31-Atg29 complex with Atg17 mutant M3 (K8D/R14D/K249D) (Saccharomyces cerevisiae, UniProt Q06410 1-417; Q12421 1-196; Q12092 1-213, K8D | R14D | K249D)
T3 construct: Atg17, Saccharomyces cerevisiae; Atg31, Saccharomyces cerevisiae; Atg29, Saccharomyces cerevisiae; a TEV cleavage site follows the His6 tag; Mutations introduced into the Atg17-Atg31-Atg29 construct by quick-change mutagenesis; source: E. coli BL21 (DE3), co-expressed from pST39, purified (Ni-NTA, Superose 6); copies: 2 + +
T3 sequence (looked up) 1: T1 sequence (looked up) 1 with K8D, R14D, K249D, D318K, D326Q, D329K
T3 sequence (looked up) 2: T1 sequence (looked up) 2
T3 sequence (looked up) 3: T1 sequence (looked up) 3

Measured: binding result

B1: GST-Atg13 (351–458) (domain or fragment, Saccharomyces cerevisiae, UniProt Q06628 351-458, looked up)
chain: TRANSFEPQSWQKKVYPISRPVQPFKVGSIGSQSASRNPSNSSFFNQPPVHRPSMSSNYGPQMNIEGTSVGSTSKYSSSFGNIRRHSSVKTTENAEKVSKAVKSPLQP
notes: a TEV cleavage site follows the GST tag; source: recombinant from pGST2 vector, purified (Glutathione Sepharose 4B, HiLoad Superdex 200 16/60); not shown: GST, N-terminal, kept
binds: all assays above
